{
  "source": "paper PMC5762392",
  "about": "(Nature biotechnology, 2017)",
  "molecular_target": "MBP fused to the Tudor domain (residues 1484–1603) of 53BP1 (human, UniProt Q12888 1484-1603)",
  "sequence (Q12888 1484-1603)": "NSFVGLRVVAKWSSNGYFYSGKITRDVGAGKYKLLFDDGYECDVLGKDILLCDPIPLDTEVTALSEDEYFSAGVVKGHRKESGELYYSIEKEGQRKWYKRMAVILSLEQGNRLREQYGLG",
  "test": "pull-down",
  "note": "Non-standard residues stand in square brackets, D forms with d. No end group written: not given here. *: point of attachment. Biotin = O=C1N[C@H]2[C@H](CS[C@H]2CCCCC(=O)*)N1; Lys(Me2) = CN(C)CCCC[C@H](N)C(=O)O",
  "data": [
    {"binder": "{Biotin-Mini‑PEG}-YGKGGAKRHR[Lys(Me2)]VLRD", "note": "[biotin-labeled peptide derived from histone H4K20me2]", "values": [
      {"measurement": "IC50", "result": "100 to 300", "unit": "µM"}
    ]}
  ]
}
